The values below come from patent publication US20250296984A1, “THERAPEUTIC AND DIAGNOSTIC AGENTS AND USES THEREOF” (priority 2022, published 2025).

Where “and” joins values, the source holds several entries; their conditions need not be identical. Equal values may be shown once.

Experiment [1] concerns the target Peptide 3 (human cytomegalovirus). Put plainly: HuProt array, 0.1 µg/ml.
The target in experiment [2] is Peptide-N-BSA (human cytomegalovirus). The experiment in a line: ELISA, Peptide-N-BSA coated.
The target in experiment [3] is Bio-Peptide-2 (human cytomegalovirus (4D variant)). Put plainly: ELISA (FIG. 5).
Experiment [4] has the same target. Put plainly: ELISA, Bio-Peptide-2 coated.

B1: US28-4-7B1F3 (antibody, mouse IgG1, kappa)
heavy: EVQLQQSGAELAKPGASVKMSCKASGYTFTNYWMHWVKQRPGQGLEWIGYVNPRTGYTEYNQKFKDKATLTADKSSRTAYMQLSSLTSEDSAVYSCARILNGTGFAYWGQGTLVTVSAAKTTPPSVYPLAPGSAAQTNSMVTLGCLVKGYFPEPVTVTWNSGSLSSGVHTFPAVLQSDLYTLSSSVTVPSSTWPSETVTCNVAHPASSTKVDKKIVPRDCGCKPCICTVPEVSSVFIFPPKPKDVLTITLTPKVTCVVVDISKDDPEVQFSWFVDDVEVHTAQTQPREEQFNSTFRSVSELPIMHQDWLNGKEFKCRVNSAAFPAPIEKTISKTKGRPKAPQVYTIPPPKEQMAKDKVSLTCMITDFFPEDITVEWQWNGQPAENYKNTQPIMDTDGSYFIYSKLNVQKSNWEAGNTFTCSVLHEGLHNHHTEKSLSHSPGK
light: DIVLTQSPSSLTVSVGEKFTMSCKSSQSLLYSSNQKNYLAWYQQKPGQSPKLLIYWASTRESGVPDRFTGSGSGTDFTLAISSVKPEDLAIYYCQQYYSFPLTFGAGTKLEIKRADAAPTVSIFPPSSEQLTSGGASVVCFLNNFYPKDINVKWKIDGSERQNGVLNSWTDQDSKDSTYSMSSTLTLTKDEYERHNSYTCEATHKTSTSPIVKSFNRNEC
In experiment [1], B1 had an F635 of 50000 AU, a S Score of 116 and a Z Score of 145. Besides, in experiment [2], the absorbance was determined as 2.8.

B2: US28-13-5G6-1D3 (antibody)
heavy: EVKLVESGGGLVQPGGSLRLACATSGFTFTDYYMSWVRQPPGKALEWLGFIRSKANGYTTEYSASVKGRFTISRDNSQSILYLQMNTLRSEDSATYYCARDERRTAWLAYWGQGTLVTVSAAKTTPPSVYPLAPGSAAQTNSMVTLGCLVKGYFPEPVTVTWNSGSLSSGVHTFPAVLQSDLYTLSSSVTVPSSTWPSETVTCNVAHPASSTKVDKKIVPRDCGCKPCICTVPEVSSVFIFPPKPKDVLTITLTPKVTCVVVDISKDDPEVQFSWFVDDVEVHTAQTQPREEQFNSTFRSVSELPIMHQDWLNGKEFKCRVNSAAFPAPIEKTISKTKGRPKAPQVYTIPPPKEQMAKDKVSLTCMITDFFPEDITVEWQWNGQPAENYKNTQPIMDTDGSYFIYSKLNVQKSNWEAGNTFTCSVLHEGLHNHHTEKSLSHSPGK
light: DVLMTQTPLSLPVSLGDQASISCRSSQSIVHSNGNTYLDWYLQKPGQSPKLLIYKVSNRFSGVPDRFSGSGSGTDFTLKISRVEAEDLGVYYCFQGSHVPTWTFGGGTKLEIKRADAAPTVSIFPPSSEQLTSGGASVVCFLNNFYPKDINVKWKIDGSERQNGVLNSWTDQDSKDSTYSMSSTLTLTKDEYERHNSYTCEATHKTSTSPIVKSFNRNEC
For B2, the fold binding over BSA control in experiment [3] was 27 fold and 28 fold.

B3: US28-14-4E4-1E8 (antibody, mouse IgG1, kappa)
heavy: not shown
light: QIVLSQSPTIMSASPGEKVTMTCSASSSVSYMHWYQQKSGTSPKRWIYDSSKLASGVPARFSGSGSGTSYSLTISSMEAEDAATYYCQQWTSNPPITFGAGTKLELKRADAAPTVSIFPPSSEQLTSGGASVVCFLNNFYPKDINVKWKIDGSERQNGVLNSWTDQDSKDSTYSMSSTLTLTKDEYERHNSYTCEATHKTSTSPIVKSFNRNEC
B3 registered an absorbance in experiment [4] of 2.87.

B4: US28-13-1C10-1G9 (antibody, mouse IgG1, kappa)
heavy: not shown
light: QIVLTQSPAIMSASPGEKVTMTCSASSSVSYMHWYQQKSGTSPKRWIYDTSKLASGVPARFSGSGSGTSYSLTISSMEAEDAATYYCQQWSSNPPLTFGAGTKLELKRADAAPTVSIFPPSSEQLTSGGASVVCFLNNFYPKDINVKWKIDGSERQNGVLNSWTDQDSKDSTYSMSSTLTLTKDEYERHNSYTCEATHKTSTSPIVKSFNRNEC
In turn, B4 came in with an absorbance in experiment [4] of 3.06.

B5: US28-13-1C10-1C10 (antibody, mouse IgG1, kappa)
heavy: EVKLVESGGVLVKPGGSLKFSCAASGFTFSSHALSWVRQTPEKRLEWVASISSRGRTYYPDSVKGRFTVSRDNARNILYLQVSSLRSEDTAMYYCTRGGTHYSYGNGFDFWGQGTTLTVSSAKTTPPSVYPLAPGSAAQTNSMVTLGCLVKGYFPEPVTVTWNSGSLSSGVHTFPAVLQSDLYTLSSSVTVPSSTWPSETVTCNVAHPASSTKVDKKIVPRDCGCKPCICTVPEVSSVFIFPPKPKDVLTITLTPKVTCVVVDISKDDPEVQFSWFVDDVEVHTAQTQPREEQFNSTFRSVSELPIMHQDWLNGKEFKCRVNSAAFPAPIEKTISKTKGRPKAPQVYTIPPPKEQMAKDKVSLTCMITDFFPEDITVEWQWNGQPAENYKNTQPIMDTDGSYFIYSKLNVQKSNWEAGNTFTCSVLHEGLHNHHTEKSLSHSPGK
light: QIVLTQSPAIMSASPGEKVTMTCSVSSSVSYMHWYQQKSGTSPKRWIYDTSKLASGVPARFSGSGSGTSYSLTISTMEAEDAATYYCQQWSNNPPITFGAGTKLELKRADAAPTVSIFPPSSEQLTSGGASVVCFLNNFYPKDINVKWKIDGSERQNGVLNSWTDQDSKDSTYSMSSTLTLTKDEYERHNSYTCEATHKTSTSPIVKSFNRNEC
B5 displayed an absorbance in experiment [4] of 3.03.

B6: US28-13-1H3-1A10 (antibody, mouse IgG1, kappa)
heavy: EVKLVESGGVLVKPGGSLKFSCAASGFTLSSHALSWVRQTPEKRLEWVASISSRGRTYYPDSVKGRFTVSRDNARNILYLQVSSLRSEDTAMYYCTRGGTHYSYGNGFDFWGQGTTLTVSSAKTTPPSVYPLAPGSAAQTNSMVTLGCLVKGYFPEPVTVTWNSGSLSSGVHTFPAVLQSDLYTLSSSVTVPSSTWPSETVTCNVAHPASSTKVDKKIVPRDCGCKPCICTVPEVSSVFIFPPKPKDVLTITLTPKVTCVVVDISKDDPEVQFSWFVDDVEVHTAQTQPREEQFNSTFRSVSELPIMHQDWLNGKEFKCRVNSAAFPAPIEKTISKTKGRPKAPQVYTIPPPKEQMAKDKVSLTCMITDFFPEDITVEWQWNGQPAENYKNTQPIMDTDGSYFIYSKLNVQKSNWEAGNTFTCSVLHEGLHNHHTEKSLSHSPGK
light: QIVLTQSPAIMSASPGEKVTMTCSVSSSVSYMHWYQQKSGTSPKRWIYDTSKLASGVPARFSGSGSGTSYSLTISTMEAEDAATYYCQQWSNNPPITFGAGTKLELKRADAAPTVSIFPPSSEQLTSGGASVVCFLNNFYPKDINVKWKIDGSERQNGVLNSWTDQDSKDSTYSMSSTLTLTKDEYERHNSYTCEATHKTSTSPIVKSFNRNEC
The molecule B6 had an absorbance in experiment [4] of 2.84.
